The text below walks through data of paper PMC2943728.

For orientation: Kd means the free concentration of one partner at which half of the binding sites on the other are occupied at equilibrium, for simple one-to-one binding. A lower Kd goes with tighter binding.

For the series, the target named is DNA polymerase beta (WT pol β) (UniProt P06746 1-335). Description: EMSA. Background: A gel shift assay detects complexes by their altered migration in electrophoresis.

B1: 45AG 1-nt gapped DNA (dsDNA)
DNA 1: GCCTCGCAGCCGTCCAACCAAC
DNA 2: CAACCTCGATCCAATGCCGTCC
DNA 3: GGACGGCATTGGATCGAGGTTGAGTTGGTTGGACGGCTGCGAGGC
modifications: 5'-phosphate on downstream oligo and template
Regarding B1, the affinity, expressed as Kd, was 78 nM.
